Measured values from the supplement of paper PMC11908140.

B1: library; numbered along this chain (parent)
chain: MRKPRAAVGSGHRKQAASQEGRQKHAKNNSQAKPSACDGLARQPEEVVLQASVSSYHLFRDVAEVTAFRGSLLSWYDQEKRDLPWRRRAEDEMDLDRRAYAVWVSEVMLQQTQVATVINYYTGWMQKWPTLQDLASASLEEVNQLWAGLGYYSRGRRLQEGARKVVEELGGHMPRTAETLQQLLPGVGRYTAGAIASIAFGQATGVVDGNVARVLCRVRAIGADPSSTLVSQQLWGLAQQLVDPARPGDFNQAAMELGATVCTPQRPLCSQCPVESLCRARQRVEQEQLLASGSLSGSPDVEECAPNTGQCHLCLPPSEPWDQTLGVVNFPRKASRKPPREESSATCVLEQPGALGAQILLVQRPNSGLLAGLWEFPSVTWEPSEQLQRKALLQELQRWAGPLPATHLRHLGEVVHTFSHIKLTYQVYGLALEGQTPVTTVPPGARWLTQEEFHTAAVSTAMKKVFRVYQGQQPGTCMGSKRSQVSSPCSRKKPRMGQQVLDNFFRSHISTDAHSLNSAAQ

Variants of: B1
Assay: 8OG:A repair function score (normalized; synonymous = 0, nonsense = -1) (normalized log-likelihood score); higher = more repair activity (WT-like)
Settings: with 8OG:A DNA repair reporter (GFP) in HEK-293 MUTYH KO cells
Method in brief: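 Lentiviral MUTYH cDNA NNN codon-scan libraries in HEK-293 MUTYH knockout cells (10 pg/ml doxycycline) were co-transfected with an 8OG:A GFP repair reporter plus mCherry. At 72 h, viable mCherry+ cells were sorted into GFP+ (repair) and GFP− bins, three replicates per tile, then tile amplicons were sequenced. Per-tile Rosace fitness scores became a normalized repair function score anchored on synonymous and nonsense distributions. Synonymous medians were set to 0 and nonsense to -1; variants under 300 counts per million at the start were removed.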

Point of comparison: V301M, “8OG:A repair function score” value -0.126. Against it:
- T260Q — higher, -0.0253
- T260S — higher, -0.104
- A67Q — lower, -0.481
- S270H — higher, 0.0198
- S270A — higher, -0.0829
- P339D — lower, -0.41
- Q388C — lower, -0.459
- Q388S — lower, -0.201
- Q351S — higher, -0.0771
- Q351G — lower, -0.16
- F68R — lower, -1.29
- F68S — lower, -1.34
- F68Y — higher, -0.0444
- V53P — lower, -0.254
- Q472R — higher, 0.0222
- Q472Y — higher, 0.00647
- W124K — lower, -0.931
- W124D — lower, -0.574
- N251C — lower, -0.884
- Q397R — lower, -0.206
- Q202P — lower, -0.931
- R332T — lower, -0.246
- R163E — lower, -0.375
- R163H — lower, -0.238
- P299V — higher, -0.0192
- P299W — higher, -0.0506
- P299R — higher, -0.000753
- P442K — lower, -0.261
- P442D — higher, -0.0873
- W235I — lower, -0.342
- P264Y — higher, -0.087
- L290R — higher, 0.0252
- F466P — lower, -1.3
- A36C — higher, 0.066
- E79Q — higher, -0.0185
- E79G — higher, -0.00351
- L145Y — higher, 0.0659
- L145N — higher, 0.0178
- P377K — lower, -1.11
- R336M — higher, -0.117
- A371E — lower, -0.577
- A371N — lower, -0.476
- R506E — higher, 0.0109
- V207M — lower, -0.495
- R495S — higher, 0.013
- V214R — lower, -1.01
- A305M — higher, -0.0121
- V274A — lower, -0.219
- G258S — lower, -1.05
- R69D — lower, -1.4
- A196Y — lower, -0.723
- A196R — lower, -0.93
- Y56L — higher, 0.00637
- Y56Q — higher, -0.0234
- Y56V — higher, -0.015
- V465C — higher, 0.0124
- P317C — higher, -0.0347
- V218F — lower, -0.436
- V218N — lower, -0.444
- V218T — lower, -0.283
- A280Q — lower, -0.761
- L370Y — lower, -0.258
- G222R — lower, -0.436
- L215E — lower, -0.98
- A253Q — lower, -1.02
- A253D — lower, -1.03
- V211Q — lower, -0.837
- V211H — lower, -0.617
- D91Y — higher, 0.00276
- P331N — lower, -0.316
- P129H — lower, -0.193
- P129I — lower, -0.53
- H410Y — higher, 0.174
- H410F — higher, 0.096
- S344I — higher, -0.0592
- N329S — lower, -0.235
- C489L — higher, 0.0177
- C489E — higher, 0.0219
- R2P — higher, -0.00444
- R2K — higher, 0.125
- A212P — lower, -0.961
- A212K — higher, -0.0378
- T406L — lower, -0.249
- A223L — lower, -0.498
- A223V — lower, -0.38
- A223F — lower, -0.516
- A223C — lower, -0.145
- Q288H — higher, 0.00465
- Q288W — higher, -0.0268
- L131V — higher, -0.0573
- R409L — higher, 0.0499
- T204N — higher, -0.117
- T204E — higher, 0.00943
- T176M — lower, -0.28
- C304F — lower, -0.29
- A245P — lower, -0.612
- V485W — higher, -0.0552
- G186V — lower, -0.852
- G186M — lower, -0.885
- G186R — lower, -1.16
- T116I — lower, -0.262
- E350T — higher, 0.0414
- V102C — higher, -0.092
- V102S — lower, -0.376
- V102I — higher, -0.00401
- S384V — higher, -0.0122
- S318D — higher, -0.0363
- L277K — lower, -0.17
- L277Y — higher, 0.014
- Q286C — higher, -0.00905
- Q286Y — higher, -0.0193
- Q286S — higher, -0.023
- A194I — lower, -0.291
- G471F — higher, -0.0055
- E167Y — higher, 0.0239
- S138N — lower, -0.128
- D300N — higher, -0.0764
- D300S — lower, -0.139
- G368D — lower, -0.434
- F200G — lower, -0.582
- F200L — lower, -0.252
- L268C — lower, -0.13
- Q239G — lower, -0.228
- V62Y — higher, 0.00694
- V62H — higher, -0.0066
- V107P — lower, -1.01
- D133T — higher, -0.0145
- G326F — lower, -0.812
- K481Q — higher, -0.00252
- G148F — lower, -0.794
- L183W — higher, -0.0703
- Q144D — lower, -0.5
- Q181M — higher, -0.0648
- P365L — higher, -0.0397
- A291Y — higher, 0.0195
- V458Y — lower, -0.724
- G150F — lower, -1.66
- A41C — higher, -0.0569
- A41W — higher, -0.0976
- Q232C — lower, -0.188
- Q232W — lower, -0.433
- D208P — lower, -1.04
- P404L — higher, 0.0132
- Y100C — lower, -1.66
- R219D — lower, -0.946
- E341T — higher, 0.0246
- L72Q — lower, -1.44
- A115T — higher, -0.106
- S55D — higher, 0.00222
- E140F — lower, -0.353
- G209D — lower, -0.851
- G209Y — lower, -0.757
- L360S — lower, -1.32
- P474W — higher, -0.0167
- V230D — lower, -0.915
- W146Q — lower, -0.345
- T476L — higher, -0.0267
- D322T — higher, -0.0961
- D322I — higher, 0.0378
- D322Q — higher, -0.0416
- A345H — higher, -0.107
- V104N — lower, -1.04
- K493D — higher, 0.0108
- S367Q — higher, -0.113
- S136V — higher, 0.077
- S136Q — higher, -0.0528
